According to patent publication EP2127683A1 (Metheresis Translational Research SA, dated 2009):
One block for each binder: values may come before it.

Legend:
[1] = biological target: T1, Met on human tumour cells (GTL-16, FaDu) (human, UniProt P08581 25-1390); assay: cell-binding assay (Lindmo), radiolabelled antibody on serial dilution of paraformaldehyde-fixed GTL-16 cells
T1 construct: whole, on cells; Endogenous Met on 2% paraformaldehyde-fixed cells; also called Hepatocyte Growth Factor Receptor; HGFR

[2] = biological target: T1, Met on human tumour cells (GTL-16, FaDu); assay: cell-binding assay (Lindmo), radiolabelled antibody on paraformaldehyde-fixed GTL-16 cells, double-reciprocal plot extrapolated
[3] = biological target: T1, Met on human tumour cells (GTL-16, FaDu); assay: immunocytochemistry on fixed cytospins and immunohistochemistry on frozen xenograft sections, streptavidin-alkaline phosphatase
Met = biological target: T2, Met (UniProt P08581 25-932, limits assumed)
T2 construct: Target of the stated Kd; The assay and the construct are not described; also called Hepatocyte Growth Factor Receptor; HGFR
T2 sequence (P08581 25-932 limits assumed): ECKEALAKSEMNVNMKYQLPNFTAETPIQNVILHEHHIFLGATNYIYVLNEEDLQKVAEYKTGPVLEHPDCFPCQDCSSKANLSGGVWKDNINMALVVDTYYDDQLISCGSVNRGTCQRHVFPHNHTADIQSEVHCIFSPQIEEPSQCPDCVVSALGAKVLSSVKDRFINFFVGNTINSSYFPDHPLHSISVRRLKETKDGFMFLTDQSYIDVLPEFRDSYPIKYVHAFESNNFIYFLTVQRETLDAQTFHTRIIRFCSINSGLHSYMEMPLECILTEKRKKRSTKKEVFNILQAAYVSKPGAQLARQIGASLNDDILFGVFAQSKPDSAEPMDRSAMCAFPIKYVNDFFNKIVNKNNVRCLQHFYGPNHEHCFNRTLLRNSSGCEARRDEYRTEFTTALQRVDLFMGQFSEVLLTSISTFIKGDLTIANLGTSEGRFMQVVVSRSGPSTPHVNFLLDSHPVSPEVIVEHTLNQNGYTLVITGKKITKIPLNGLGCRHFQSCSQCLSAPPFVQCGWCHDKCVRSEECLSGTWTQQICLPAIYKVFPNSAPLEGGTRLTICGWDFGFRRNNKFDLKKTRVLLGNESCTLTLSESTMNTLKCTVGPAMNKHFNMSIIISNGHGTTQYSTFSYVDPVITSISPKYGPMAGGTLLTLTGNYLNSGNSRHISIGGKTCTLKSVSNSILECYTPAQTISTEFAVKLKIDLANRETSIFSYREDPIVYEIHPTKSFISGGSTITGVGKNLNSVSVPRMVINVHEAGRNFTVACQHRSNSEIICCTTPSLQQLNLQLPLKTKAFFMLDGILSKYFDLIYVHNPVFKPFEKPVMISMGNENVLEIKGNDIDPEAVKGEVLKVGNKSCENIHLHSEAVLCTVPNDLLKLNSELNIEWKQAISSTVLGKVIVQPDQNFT

T1 sequence (P08581 25-1390): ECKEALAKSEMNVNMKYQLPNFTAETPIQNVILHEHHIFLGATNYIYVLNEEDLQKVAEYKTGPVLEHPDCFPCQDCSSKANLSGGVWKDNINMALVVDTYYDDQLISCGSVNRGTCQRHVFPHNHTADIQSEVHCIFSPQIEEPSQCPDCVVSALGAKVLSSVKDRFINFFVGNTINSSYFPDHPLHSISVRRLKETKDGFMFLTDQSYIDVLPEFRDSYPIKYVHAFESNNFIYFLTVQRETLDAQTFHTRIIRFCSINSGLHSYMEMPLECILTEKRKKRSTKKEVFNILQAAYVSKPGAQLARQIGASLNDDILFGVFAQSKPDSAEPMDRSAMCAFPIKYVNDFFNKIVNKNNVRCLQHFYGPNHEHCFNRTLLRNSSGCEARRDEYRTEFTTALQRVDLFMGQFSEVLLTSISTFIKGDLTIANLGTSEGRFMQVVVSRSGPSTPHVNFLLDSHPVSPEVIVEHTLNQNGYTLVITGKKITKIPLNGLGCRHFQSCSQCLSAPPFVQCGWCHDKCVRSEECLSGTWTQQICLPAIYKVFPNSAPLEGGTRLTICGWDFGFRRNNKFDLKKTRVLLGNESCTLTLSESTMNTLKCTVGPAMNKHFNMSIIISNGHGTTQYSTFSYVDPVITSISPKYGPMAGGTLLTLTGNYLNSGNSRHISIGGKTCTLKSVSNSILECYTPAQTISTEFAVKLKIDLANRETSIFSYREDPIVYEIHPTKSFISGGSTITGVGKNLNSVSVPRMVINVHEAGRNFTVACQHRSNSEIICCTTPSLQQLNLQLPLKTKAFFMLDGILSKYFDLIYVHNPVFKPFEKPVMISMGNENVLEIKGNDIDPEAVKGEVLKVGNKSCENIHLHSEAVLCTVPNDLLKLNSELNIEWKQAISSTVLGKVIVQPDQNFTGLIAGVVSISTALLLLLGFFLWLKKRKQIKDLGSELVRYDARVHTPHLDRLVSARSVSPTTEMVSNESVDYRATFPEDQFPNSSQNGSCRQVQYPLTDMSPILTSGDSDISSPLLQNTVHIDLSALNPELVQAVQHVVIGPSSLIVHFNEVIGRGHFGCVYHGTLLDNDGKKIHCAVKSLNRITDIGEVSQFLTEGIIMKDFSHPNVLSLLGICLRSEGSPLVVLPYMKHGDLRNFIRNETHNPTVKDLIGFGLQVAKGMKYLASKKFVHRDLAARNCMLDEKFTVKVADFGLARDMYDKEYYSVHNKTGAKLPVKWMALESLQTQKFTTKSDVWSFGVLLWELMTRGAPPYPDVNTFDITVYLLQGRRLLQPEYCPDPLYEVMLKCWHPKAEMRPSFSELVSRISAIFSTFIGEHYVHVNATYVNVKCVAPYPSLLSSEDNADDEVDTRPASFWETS

B1: 89Zr-N-sucDf-DN30 (antibody, mouse IgG2a, kappa, V domains shown)
VH: QVQLQQPGTELVKPGASVKLSCKASGYTFTSYWIHWVKQRPGQGLEWIGEINPSSGRTNYNEKFKNKVTVTVDKSSTTAYMQLSNLTSEDSAVYYCASRGYWGQGTTLTVSS
VL: DIVLTQSPASLAVSLGQRATISCKASQSVDYDGGSYMSWFQQRPGQPPKLLISAASNLESGIPARFSGSGSGTDFTLNIHPVEEEDVATYYCQQSYEDPLTFGAGTKLELKR
modifications: N-succinyl-desferal (N-sucDf) chelate carrying 89Zr coupled to lysine residues, approximately 1 N-sucDf moiety per DN30 molecule; positions not given
- immunoreactivity at the highest cell concentration [1]: > 70%
- immunoreactivity at infinite antigen excess [2]: > 95%

B4: 131I-DN30 (antibody, mouse IgG2a, kappa, V domains shown)
VH: B1 VH
VL: B1 VL
modifications: radioiodinated with 131I (IODO-GEN method); positions not given
- immunoreactivity at the highest cell concentration [1]: > 70%
- immunoreactivity at infinite antigen excess [2]: > 95%

Now from value to binder:

- binding result [3]: binds
B2: biotinylated DN30 (antibody, mouse IgG2a, kappa, V domains shown)
VH: B1 VH
VL: B1 VL
modifications: biotinylated; positions not given

- Kd (Met): 2.64 nM
B3: murine IgG2a MAb DN30 (antibody, V domains shown)
VH: B1 VH
VL: B1 VL
notes: Murine IgG2a from the hybridoma; also called anti-Met monoclonal antibody produced by the hybridoma cell line ICLC PD 05006
